Laboratory results as given in doi:10.1101/2022.04.21.488985 (bioRxiv, 2022).

Target: T1, bovine serum albumin (Bos taurus, UniProt P02769)
T1 construct: also called BSA
Experiment: ELISA

T1 sequence (P02769 25-607): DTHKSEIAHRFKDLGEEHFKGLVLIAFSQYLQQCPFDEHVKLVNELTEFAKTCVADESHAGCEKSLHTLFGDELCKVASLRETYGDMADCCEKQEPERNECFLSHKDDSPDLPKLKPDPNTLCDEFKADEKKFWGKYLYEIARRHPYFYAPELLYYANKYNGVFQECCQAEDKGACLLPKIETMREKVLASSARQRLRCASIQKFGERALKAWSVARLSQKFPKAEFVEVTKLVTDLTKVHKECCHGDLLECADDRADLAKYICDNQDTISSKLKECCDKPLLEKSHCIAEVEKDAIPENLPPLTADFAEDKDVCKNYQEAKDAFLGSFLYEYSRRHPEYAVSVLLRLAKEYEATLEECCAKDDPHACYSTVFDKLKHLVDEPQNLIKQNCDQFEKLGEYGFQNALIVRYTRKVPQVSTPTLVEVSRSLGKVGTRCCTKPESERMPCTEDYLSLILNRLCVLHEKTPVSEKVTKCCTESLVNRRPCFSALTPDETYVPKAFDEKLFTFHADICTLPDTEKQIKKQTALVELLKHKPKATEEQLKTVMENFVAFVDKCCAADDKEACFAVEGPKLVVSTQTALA

B1: D5 nanobody (camel VHH) (VHH)
VHH: AWQLVESGGGSVQPGGSLTLTCQASKSTFSTSGMRWERQAQGKGVEFVADISSDSTRKWYSDSVKGRFTISRSNWWRTVTLQMNDLKPEDTARYYCKDLESHHLRGQGTQVTVSS
notes: also called single domain antibody D5
B1: no binding.
